Test results as given in US20250027945A1 (University of California, published 2025).

Assays:
[1] = molecular target: T1, human RYK on the surface of human tumor cell lines (human, UniProt P34925 46-607); assay: flow cytometry, SK-OV-3 cells (ovarian), 5 ug/ml 2-D11-Alexa647; line unmarked (no staining)
T1 construct: whole, on cells; Endogenous expression
Protocol: (§1) Table 1 provides the flow cytometry data on various cancer cell lines stained with fluorochrome-conjugated 2-D11, as depicted in FIG. 8. The name of each cell line is listed in the first column and the tissue of origin is listed in the second column. Binding of the 2-D11 mAb to human RYK was assessed by flow cytometric staining and analysis by staining on ice for 20 minutes with 5 μg/ml of 2-D11 anti-human RYK-Alexa647 conjugated mAb or equal amounts of isotype matched control mAb, washed, and analyzed. The median fluorescence intensity (MFI) of 2-D11 stained cells is listed in the middle column and the MFI of isotype control stained cells are listed in the in the adjacent column. Cell lines were scored as “++”, “+”, or neg (unmarked with “+”) lines based on the ratio of median fluorescence intensity (MFI) of stained cells relative to the MFI of isotype control stained cells (MFIR).
(§2) The name of each cell line is listed in the first column and the tissue of origin is listed in the second column. Binding of the 2-D11 mAb to human RYK was assessed by flow cytometric staining and analysis by staining on ice for 20 minutes with 5 μg/ml of 2-D11 anti-human RYK-Alexa647 conjugated mAb or equal amounts of isotype matched control mAb, washed and analyzed. […]

[2] = molecular target: T1, human RYK on the surface of human tumor …; assay: flow cytometry, EW36 cells (NHL), 5 ug/ml 2-D11-Alexa647; line unmarked (no staining)
Protocol: as §1, §2

[3] = molecular target: T1, human RYK on the surface of human tumor …; assay: flow cytometry, SK-MES-1 cells (lung), 5 ug/ml 2-D11-Alexa647; line unmarked (no staining)
Protocol: as §1, §2

[4] = molecular target: T1, human RYK on the surface of human tumor …; assay: flow cytometry, HELA cells (ovarian as printed), 5 ug/ml 2-D11-Alexa647; line unmarked (no staining)
Protocol: as §1, §2

[5] = molecular target: T1, human RYK on the surface of human tumor …; assay: flow cytometry, JEKO cells (mantle), 5 ug/ml 2-D11-Alexa647; line unmarked (no staining)
Protocol: as §1, §2

[6] = molecular target: T1, human RYK on the surface of human tumor …; assay: flow cytometry, H460 cells (lung), 5 ug/ml 2-D11-Alexa647
Protocol: as §1, §2

[7] = molecular target: T2, recombinant extracellular protein of mouse RYK (mouse, UniProt Q01887 35-211); assay: immunoblot of recombinant extracellular protein on nylon membrane
T2 construct: also called mRYK; not shown: rabbit IgG tag for purification
T2 sequence (Q01887 35-211): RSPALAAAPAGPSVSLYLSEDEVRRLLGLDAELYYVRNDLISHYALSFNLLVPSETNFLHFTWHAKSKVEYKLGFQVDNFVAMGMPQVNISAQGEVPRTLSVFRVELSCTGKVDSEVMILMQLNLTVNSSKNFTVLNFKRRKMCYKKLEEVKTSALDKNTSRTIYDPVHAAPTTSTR
Protocol: FIG. 4A illustrates experiments in which binding of 2-D11, 7-H10, 3-C12, 11-E9, 6-B5, 6-D10 and sheep anti-RYK mAb was assessed using recombinant human RYK proteins (SEQ ID NO:129) in which one amino acid that differs between human and mouse RYK within the extracellular domain was replaced with the corresponding amino acid of mouse RYK. Each recombinant protein was transferred onto nylon membrane, probed with the indicated anti-RYK mAb or Sheep anti-RYK Ab, and detected with an anti-mouse IgG or donkey-anti-sheep antibody conjugated with horse radish peroxidase. […]
The anti-human RYK mAbs, 2-D11 and 7-H10, appear specific for an amino terminal epitope of human Ryk (residues 46-57) that are distinct from those in mouse Ryk (FIG. 3); these mAbs also bind mutant forms of Ryk containing amino acid substitutions in human Ryk at positions that differ from that of the highly homologous mouse Ryk to assimilate mouse Ryk at the site of substitution, with amino acid sequence shown in FIG. 3, as shown by immunoblot analyses of recombinant extracellular proteins of human or mouse or each of the various mutant forms of human Ryk (FIG. 4) For this, the binding of 2-D11, 7-H10, or Sheep anti-RYK mAb was assessed using recombinant extracellular RYK proteins as specified in the Key. […]

[8] = molecular target: T1, human RYK on the surface of human tumor …; assay: flow cytometry, HS-578T cells (breast), 5 ug/ml 2-D11-Alexa647
Protocol: as §1, §2

[9] = molecular target: T1, human RYK on the surface of human tumor …; assay: flow cytometry, BT549 cells (breast), 5 ug/ml 2-D11-Alexa647
Protocol: as §1, §2

[10] = molecular target: T1, human RYK on the surface of human tumor …; assay: flow cytometry, H446 cells (lung), 5 ug/ml 2-D11-Alexa647
Protocol: as §1, §2

[11] = molecular target: T1, human RYK on the surface of human tumor …; assay: flow cytometry, DU-145 cells (prostate), 5 ug/ml 2-D11-Alexa647; line unmarked (no staining)
Protocol: as §1, §2

[12] = molecular target: T1, human RYK on the surface of human tumor …; assay: flow cytometry, HT29 cells (colon), 5 ug/ml 2-D11-Alexa647
Protocol: as §1, §2

[13] = molecular target: T1, human RYK on the surface of human tumor …; assay: flow cytometry, REH cells (ALL), 5 ug/ml 2-D11-Alexa647; line unmarked (no staining)
Protocol: as §1, §2

T1 sequence (P34925 46-607 limits assumed, form in doubt): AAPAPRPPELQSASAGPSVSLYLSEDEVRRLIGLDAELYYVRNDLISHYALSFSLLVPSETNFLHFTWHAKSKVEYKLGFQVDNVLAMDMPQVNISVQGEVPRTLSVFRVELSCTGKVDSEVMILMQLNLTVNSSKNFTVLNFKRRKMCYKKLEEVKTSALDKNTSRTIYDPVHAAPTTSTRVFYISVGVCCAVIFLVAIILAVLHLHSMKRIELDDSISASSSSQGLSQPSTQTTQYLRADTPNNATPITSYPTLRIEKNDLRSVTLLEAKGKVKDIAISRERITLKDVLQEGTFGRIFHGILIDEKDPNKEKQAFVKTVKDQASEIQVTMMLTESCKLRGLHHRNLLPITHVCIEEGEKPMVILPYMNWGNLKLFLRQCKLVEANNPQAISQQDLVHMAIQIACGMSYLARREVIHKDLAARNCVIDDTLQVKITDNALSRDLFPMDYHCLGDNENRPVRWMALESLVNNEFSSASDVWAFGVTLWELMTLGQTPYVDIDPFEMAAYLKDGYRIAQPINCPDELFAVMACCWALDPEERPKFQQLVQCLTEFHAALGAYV

B1: 2-D11 anti-human RYK mAb (antibody, V domains shown)
VH: QVQLKESGPGLVAPSQSLSITCSVSGFSLNDYGVNWVRQPPGKDLEWLGMIWGDGVTEYNSTLKSRLSISKDNSKSQVFLKMNNLQTEDTARYYCVRQGSGVWFAHWGQGTLVSVSS
VL: DVLVTQTPLSLPVSLGDQASISCRSSQTIVHSNGNTYLEWYLQKPGQSPKLLIYKVSNRFSGVPDRFSGSGSGTDFTLKISRVEAEDLGIYYCFQGSHVPYTFGGGTKLEIK
notes: Mouse hybridoma mAb, kappa light chain, detected with anti-mouse IgG; also called mAb 2-D11; 2-D11 anti-human RYK-Alexa647 conjugated mAb
[1]
  MFIR (MFI ratio to isotype control): 1.1
[2]
  MFIR (MFI ratio to isotype control): 1.1
[3]
  MFIR (MFI ratio to isotype control): 1.1
[4]
  MFIR (MFI ratio to isotype control): 1.1
[5]
  MFIR (MFI ratio to isotype control): 1.3
[6]
  MFIR (MFI ratio to isotype control): 1.5
[7]
  binding result: no binding
[8]
  MFIR (MFI ratio to isotype control): 2.7
[9]
  MFIR (MFI ratio to isotype control): 3.9
[10]
  MFIR (MFI ratio to isotype control): 2.6
[11]
  MFIR (MFI ratio to isotype control): 1.3
[12]
  MFIR (MFI ratio to isotype control): 2.2
[13]
  MFIR (MFI ratio to isotype control): 1
